Test results taken from PMC9887734, “Meeting abstracts from the 10th International Conference on cGMP: Generators, Effectors and Therapeutic Implications” (Journal of Translational Medicine, 2023).

What was measured:
[1] = biological target: T1, CNGB3 subunit of the human cone photoreceptor CNG channel (human, UniProt Q9NQW8 1-809); assay: cryo-EM structure; human cone photoreceptor CNG channel CNGA3/CNGB3 in the apo state; conditions: both partners purified
T1 construct: CNGB3, human cone photoreceptor cyclic nucleotide-gated channel subunit; One copy stands in the CNGA3/CNGB3 channel
T1 sequence (looked up): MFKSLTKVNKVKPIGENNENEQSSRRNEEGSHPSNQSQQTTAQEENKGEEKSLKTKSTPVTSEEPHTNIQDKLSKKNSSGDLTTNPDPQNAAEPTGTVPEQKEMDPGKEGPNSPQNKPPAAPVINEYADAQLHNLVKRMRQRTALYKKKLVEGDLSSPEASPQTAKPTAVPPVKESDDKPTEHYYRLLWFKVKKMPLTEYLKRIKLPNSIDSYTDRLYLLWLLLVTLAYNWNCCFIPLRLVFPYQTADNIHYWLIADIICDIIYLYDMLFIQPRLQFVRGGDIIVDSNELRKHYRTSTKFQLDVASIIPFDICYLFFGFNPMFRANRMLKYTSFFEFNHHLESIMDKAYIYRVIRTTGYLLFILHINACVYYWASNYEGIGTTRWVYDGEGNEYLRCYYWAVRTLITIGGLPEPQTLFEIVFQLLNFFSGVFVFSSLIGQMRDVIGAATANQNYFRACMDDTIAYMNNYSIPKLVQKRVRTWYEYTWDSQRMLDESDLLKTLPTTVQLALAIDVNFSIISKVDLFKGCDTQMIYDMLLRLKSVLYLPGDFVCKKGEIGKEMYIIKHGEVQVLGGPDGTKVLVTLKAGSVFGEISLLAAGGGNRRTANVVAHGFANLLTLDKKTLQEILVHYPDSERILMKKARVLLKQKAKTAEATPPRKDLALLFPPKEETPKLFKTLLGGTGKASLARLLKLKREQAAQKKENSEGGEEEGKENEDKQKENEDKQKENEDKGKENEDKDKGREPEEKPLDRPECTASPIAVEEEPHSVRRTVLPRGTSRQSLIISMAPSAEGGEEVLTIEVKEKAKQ

[2] = biological target: the molecule itself; assay: as above

B1: CNGA3 subunit of the human cone photoreceptor CNG channel (natural protein, UniProt Q16281 1-694, looked up)
chain: MAKINTQYSHPSRTHLKVKTSDRDLNRAENGLSRAHSSSEETSSVLQPGIAMETRGLADSGQGSFTGQGIARLSRLIFLLRRWAARHVHHQDQGPDSFPDRFRGAELKEVSSQESNAQANVGSQEPADRGRSAWPLAKCNTNTSNNTEEEKKTKKKDAIVVDPSSNLYYRWLTAIALPVFYNWYLLICRACFDELQSEYLMLWLVLDYSADVLYVLDVLVRARTGFLEQGLMVSDTNRLWQHYKTTTQFKLDVLSLVPTDLAYLKVGTNYPEVRFNRLLKFSRLFEFFDRTETRTNYPNMFRIGNLVLYILIIIHWNACIYFAISKFIGFGTDSWVYPNISIPEHGRLSRKYIYSLYWSTLTLTTIGETPPPVKDEEYLFVVVDFLVGVLIFATIVGNVGSMISNMNASRAEFQAKIDSIKQYMQFRKVTKDLETRVIRWFDYLWANKKTVDEKEVLKSLPDKLKAEIAINVHLDTLKKVRIFQDCEAGLLVELVLKLRPTVFSPGDYICKKGDIGKEMYIINEGKLAVVADDGVTQFVVLSDGSYFGEISILNIKGSKSGNRRTANIRSIGYSDLFCLSKDDLMEALTEYPEAKKALEEKGRQILMKDNLIDEELARAGADPKDLEEKVEQLGSSLDTLQTRFARLLAEYNATQMKMKQRLSQLESQVKGGGDKPLADGEVPGDATKTEDKQQ
notes: CNGA3, human cone photoreceptor cyclic nucleotide-gated channel subunit; Three copies stand in the CNGA3/CNGB3 channel whose cryo-EM structure (apo state) is reported
With B1 as the binder, how does the “stoichiometry N” value [1] read?
The value was 3 CNGA3 per CNGB3.

Does B1 bind [2]?
Result: binds
